Results from patent US20170369576A1 (UBI US, published 2017).

Legend:
[1] = molecular target: T1, recombinant soluble CD4 (UniProt P01730 26-390, limits assumed); assay: competition ELISA on coated sCD4/p2704a mixture; inhibition of B4-biotin (10 µg/mL)
T1 construct: also called sCD4; rsCD4

[2] = molecular target: T2, human CD4, membrane-bound on cells (HPB-ALL cells, blood/PBMC CD4+ T cells, assay target cells) (human, UniProt P01730 26-458); assay: cell-based or functional assay
[3] = molecular target: T1, recombinant soluble CD4; assay: competition ELISA on coated sCD4/p2704a mixture; reference dB4
[4] = molecular target: T2, human CD4, membrane-bound on cells …; assay: competition FACS on HPB-ALL cells; inhibition of dB4-Alexa (250 ng/mL)
Method: On V-bottomed microplates, aliquots of 2×10⁵ cells in 0.1 mL per well were added, centrifuged, and liquid discarded. […] The cells were washed once and the liquid discarded after centrifugation. To each well, aliquots of 200 μL of binding buffer were added and transferred to microdilution tubes for flow cytometric analysis. The binding intensity (mean fluorescence intensity, MFI), based on an inlet of 5,000 cells per sample, was read on FACS.

[5] = molecular target: T2, human CD4, membrane-bound on cells …; assay: cell-based or functional assay; remark: listed apart in the source
[6] = molecular target: T2, human CD4, membrane-bound on cells …; assay: cell-based or functional assay; remark: listed apart in the source
[7] = molecular target: T2, human CD4, membrane-bound on cells …; assay: competition FACS on HPB-ALL cells; reference dB4

B1: murine monoclonal antibody B4 (mAb B4) (antibody, V domains shown)
VH: QVQLQQSGPELVKPGASVRMSCKASGYTFTDYVIHWVKQRTGQGLEWIGEIYPGSGSAYSNAKFKDKATLTADKSSNTAYMQLSSLTSEDSAVYFCARRGNGTGFAYWGQGTLVTVSA
VL: DIVLTQSPASLAVSLGQRATISCKAGQSVDYDGDSYMNWYQQKPGQPPKLLIYVASNLESGIPARFSGSGSGTDFTLNIHPVEEEDAATYYCQQSYKDPLTFGAGTKLELK
modifications: N-glycosylated at Asn101 in the Fv
- IC50 [1]: 5.54 µg/mL
- IC50 of entry inhibition, second cluster, panel of over 850 Env pseudotype viruses [2]: ~10 µg/mL
- IC50 ratio of B4 to dB4 [3]: 0.68 ratio
- IC50 [4]: 0.135 µg/mL
- IC50 of HIV entry inhibition, pseudotype virus 92TH594 (R5/X4), U87-CD4+/CCR5+/CXCR4+ cells [5]: 0.05 µg/mL
- IC50 of HIV entry inhibition, pseudotype virus HXB2 (X4), U87-CD4+/CCR5+/CXCR4+ cells [5]: 0.4 µg/mL
- IC50 of HIV entry inhibition, pseudotype virus JRCSF (R5), U87-CD4+/CCR5+/CXCR4+ cells [5]: 0.04 µg/mL
- IC50 entry inhibition, PhenoSense, control virus 92HT594 [6]: 0.021 µg/mL
- IC50 entry inhibition, PhenoSense, control virus JRCSF [6]: 0.034 µg/mL
- IC50 entry inhibition, PhenoSense, control virus JRFL [6]: 0.074 µg/mL
- IC50 entry inhibition, PhenoSense, isolate 92/RW/008 (clade A) [6]: 0.026 µg/mL
- IC50 entry inhibition, PhenoSense, isolate 92/RW/024 (clade A) [6]: 0.055 µg/mL
- IC50 entry inhibition, PhenoSense, isolate 92/TH/005 (clade EA) [6]: 0.012 µg/mL
- IC50 entry inhibition, PhenoSense, isolate 92/TH/006 (clade EA) [6]: 0.022 µg/mL
- IC50 entry inhibition, PhenoSense, isolate 92/TH/007 (clade EA) [6]: 0.013 µg/mL
- IC50 entry inhibition, PhenoSense, isolate 92/TH/009 (clade EA) [6]: 0.021 µg/mL
- IC50 entry inhibition, PhenoSense, isolate 92/TH/019 (clade EA) [6]: 0.022 µg/mL
- IC50 entry inhibition, PhenoSense, isolate 92/TH/020 (clade EA) [6]: 0.015 µg/mL
- IC50 entry inhibition, PhenoSense, isolate 92/TH/021 (clade EA) [6]: 0.017 µg/mL
- IC50 entry inhibition, PhenoSense, isolate 92/TH/022 (clade EA) [6]: 0.012 µg/mL
- IC50 entry inhibition, PhenoSense, isolate 92/TH/024 (clade EA) [6]: 0.01 µg/mL
- IC50 entry inhibition, PhenoSense, isolate 92/UG/001 (clade D) [6]: 0.018 µg/mL
- IC50 entry inhibition, PhenoSense, isolate 92/UG/005 (clade D) [6]: 0.019 µg/mL
- IC50 entry inhibition, PhenoSense, isolate 92/UG/021 (clade D) [6]: 0.017 µg/mL
- IC50 entry inhibition, PhenoSense, isolate 92/UG/024 (clade D) [6]: 0.04 µg/mL
- IC50 entry inhibition, PhenoSense, isolate 92/UG/035 (clade D) [6]: 0.011 µg/mL
- IC50 entry inhibition, PhenoSense, isolate 92/UG/038 (clade D) [6]: 0.014 µg/mL
- IC50 entry inhibition, PhenoSense, isolate 92/UG/046 (clade D) [6]: 0.015 µg/mL
- IC50 entry inhibition, PhenoSense, isolate 93/BR/019 (clade BF) [6]: 0.013 µg/mL
- IC50 entry inhibition, PhenoSense, isolate 93/BR/020 (clade F) [6]: 0.024 µg/mL
- IC50 entry inhibition, PhenoSense, isolate 93/IN/101 (clade C) [6]: 0.016 µg/mL
- IC50 entry inhibition, PhenoSense, isolate 93/RW/029 (clade A) [6]: 0.019 µg/mL
- IC50 entry inhibition, PhenoSense, isolate 93/TH/057 (clade E) [6]: 0.023 µg/mL
- IC50 entry inhibition, PhenoSense, isolate 93/TH/305 (clade E) [6]: 0.021 µg/mL
- IC50 entry inhibition, PhenoSense, isolate 93/UG/053 (clade D) [6]: 0.02 µg/mL
- IC50 entry inhibition, PhenoSense, isolate 93/UG/065 (clade D) [6]: 0.015 µg/mL
- IC50 entry inhibition, PhenoSense, isolate 93/UG/067 (clade D) [6]: 0.016 µg/mL
- IC50 entry inhibition, PhenoSense, isolate 93/UG/070 (clade D) [6]: 0.011 µg/mL
- IC50 entry inhibition, PhenoSense, isolate 93/UG/077 (clade A) [6]: 0.012 µg/mL
- IC50 entry inhibition, PhenoSense, isolate 93/UG/082 (clade D) [6]: 0.016 µg/mL
- IC50 entry inhibition, PhenoSense, isolate 93/UG/086 (clade D) [6]: 0.015 µg/mL
- IC50 entry inhibition, PhenoSense, isolate 94/UG/103 (clade A) [6]: 0.021 µg/mL
- IC50 entry inhibition, PhenoSense, isolate 94/UG/105 (clade D) [6]: 0.021 µg/mL
- IC50 entry inhibition, PhenoSense, isolate 94/UG/114 (clade D) [6]: 0.015 µg/mL
- IC50 entry inhibition, PhenoSense, isolate 94/UG/117 (clade D) [6]: 0.017 µg/mL
- IC50 entry inhibition, PhenoSense, isolate 94/UG/118 (clade D) [6]: 0.02 µg/mL
- IC50 entry inhibition, PhenoSense, isolate 10215-6 (clade C) [6]: 0.018 µg/mL
- IC50 entry inhibition, PhenoSense, isolate 10362 (clade C) [6]: 0.02 µg/mL
- IC50 entry inhibition, PhenoSense, isolate 11657-3 (clade C) [6]: 0.025 µg/mL
- IC50 entry inhibition, PhenoSense, isolate 20635-4 (clade C) [6]: 0.02 µg/mL
- IC50 entry inhibition, PhenoSense, isolate 21068 (clade C) [6]: 0.011 µg/mL
- IC50 entry inhibition, PhenoSense, isolate CA1 (clade A) [6]: 0.011 µg/mL
- IC50 entry inhibition, PhenoSense, isolate CA2 (clade A) [6]: 0.018 µg/mL
- IC50 entry inhibition, PhenoSense, isolate CA3 (clade A) [6]: 0.019 µg/mL
- IC50 entry inhibition, PhenoSense, isolate CC1 (clade C) [6]: 0.016 µg/mL
- IC50 entry inhibition, PhenoSense, isolate CC2 (clade C) [6]: 0.021 µg/mL
- IC50 entry inhibition, PhenoSense, isolate CC3 (clade C) [6]: 0.012 µg/mL
- IC50 entry inhibition, PhenoSense, isolate CC4 (clade C) [6]: 0.013 µg/mL
- IC50 entry inhibition, PhenoSense, isolate CC5 (clade C) [6]: 0.019 µg/mL
- IC50 entry inhibition, PhenoSense, isolate CC6 (clade C) [6]: 0.018 µg/mL
- IC50 entry inhibition, PhenoSense, isolate CC7 (clade C) [6]: 0.013 µg/mL
- IC50 entry inhibition, PhenoSense, isolate CC8 (clade C) [6]: 0.019 µg/mL
- IC50 entry inhibition, PhenoSense, isolate CC9 (clade C) [6]: 0.02 µg/mL
- IC50 entry inhibition, PhenoSense, isolate CC10 (clade C) [6]: 0.015 µg/mL
- IC50 entry inhibition, PhenoSense, isolate CD1 (clade D) [6]: 0.016 µg/mL
- IC50 entry inhibition, PhenoSense, isolate CF2 (clade F) [6]: 0.016 µg/mL
- IC50 entry inhibition, PhenoSense, isolate CF3 (clade F) [6]: 0.024 µg/mL
- IC50 entry inhibition, PhenoSense, isolate CF4 (clade F) [6]: 0.019 µg/mL
- IC50 entry inhibition, PhenoSense, isolate CF5 (clade F) [6]: 0.018 µg/mL
- IC50 entry inhibition, PhenoSense, isolate CF6 (clade F) [6]: 0.018 µg/mL
- IC50 entry inhibition, PhenoSense, isolate CF7 (clade F) [6]: 0.019 µg/mL
- IC50 entry inhibition, PhenoSense, isolate CF8 (clade F) [6]: 0.017 µg/mL
- IC50 entry inhibition, PhenoSense, isolate CG1 (clade G) [6]: 0.018 µg/mL
- IC50 entry inhibition, PhenoSense, isolate CG2 (clade G) [6]: 0.027 µg/mL
- IC50 entry inhibition, PhenoSense, isolate CG3 (clade G) [6]: 0.016 µg/mL
- IC50 entry inhibition, PhenoSense, isolate CG4 (clade G) [6]: 0.013 µg/mL
- IC50 entry inhibition, PhenoSense, isolate CJ1 (clade J) [6]: 0.018 µg/mL
- IC50 entry inhibition, PhenoSense, isolate CJ2 (clade J) [6]: 0.019 µg/mL
- IC50 entry inhibition, PhenoSense, isolate CMU02 (clade EA) [6]: 0.011 µg/mL
- IC50 entry inhibition, PhenoSense, isolate CMU06 (clade E) [6]: 0.026 µg/mL
- IC50 entry inhibition, PhenoSense, isolate MW/93/959 (clade C) [6]: 0.019 µg/mL
- IC50 entry inhibition, PhenoSense, isolate MW/93/960 (clade C) [6]: 0.01 µg/mL
- IC50 entry inhibition, PhenoSense, isolate QZ4589 (clade E?) [6]: 0.036 µg/mL
- average IC50 entry inhibition, PhenoSense, all viruses of Table 3 [6]: 0.018 µg/mL
- IC50 ratio of B4 to dB4 [7]: 0.69 ratio
